{"source": "patent US5612190", "binders": {"B1": {"name": "secretion type PLA2-I receptor protein (receptor)", "chain": "ETAAWAVTPERLREWQDKGIFIIQSENLEKCIQASKSTLTLENCKPPNKYMLWKWVSNHRLFNIGGSGCLGLNVSSPEQPLSIYECDSTHVSLKWHCNKKTITGPLQYLVQVKQDNTLVASRKYLHKWVSYMSGGGGICDYLHKDLYTIKGNAHGTPCMFPFQYNQQWHHECTREGREDNLLWCATTSRYERDEKWGFCPDPTSTEVGCDAVWEKDLHSRICYQFNLLSSLSWSEAHSSCQMQGAALLSIADETEENFVRKHLGSEAVEVWMGLNQLDEDAGWQWSDRTPLNYLNWKPEINFEPFVEYHCGTFNAFMPKAWKSRDCESTLPYVCKKYLNPTDHGVVEKDAWKYYATHCEPGWNPHNRNCYKLQKEKKTWNEALQSCQSNNSVLTDITSLAEVEFLVTLLGDENASETWIGLSSHKIPVSFEWSNGSSVTFTNWHTLEPHIFPNRSQLCVSAEQSEGHWKVKNCEETLFYLCKKTGLVLSDTESGCQKGWERHGKFCYKIDTVLRSFDHASSGYYCPPALITITSRFEQAFITSLISSVVKTKDTYFWIALQDQNNTGEYTWKTAGQQLEPVKYTHWNTRQPRYSGGCVVMRGRSHPGRWEVRDCRHFKAMSLCKQPVENREKTKQEEGWPFHPCYLDWESEPGLASCFKVFHSEKVLMKRTWRQAEEFCEEFGAHLASFAHIEEENFVNELLHSKFNRTEERQFWIGFNKRNPLNAGSWEWSDGTPVVSSFLDNSYFGEDARNCAVYKANKTLLPSYCGSKREWICKIPRDVRPKVPPWYQYDAPWLFYQDAEYLFHISASEWSSFEFVCGWLRSDILTIHSAHEQEFIHSKIRALSKYGVNWWIGLREERASDEFRWRDGSPVIYQNWDKGKERSMGLNESQRCGFISSITGLWASEECSISMPSICKRKKVWVIEKKKDIPKQHGTCPKGWLYFDYKCLLLKIPEGPSDWKNWTSAQDFCVEEGGTLVAIENEVEQAFITMNLFGHTTNVWIGLQDDDYEKWLNGRPVSYSNWSPFDTKNIPNHNTTEVQKRIPLCGLLSNNPNFHFTGKWYFEDCREGYGFVCEKMQDASGHSINTSDMYPIPNTLEYGNRTYKIINANMTWYTALKTCLMHGAELASITDQYHQSFLTVILNRVGYAHWIGLFTEDNGLSFDWSDGTKSSFTFWKDDESSFLGDCVFADTSGRWSSTACESYLQGAICQVPTETRLSGRLELCSETSIPWIKFKSNCYSFSTVLESTSFEAAHEFCKKKGSNLLTIKDEAENSFLLEELLAFRSSVQMIWLNAQFDGDNETIKWFDGTPTDQSNWGIRKPEVYHFKPHLCVALRIPEGVWQLSSCQDKKGFICKMEADIHTVKKHPGK"}}, "target": "group I phospholipase A2", "assay": "125I-PLA2-I binding in COS7 culture supernatant, polyethylene glycol coprecipitation"}
{"binder": "B1", "values": [{"measurement": "Kd", "result": 0.8, "unit": "nM"}]}
